What was measured:
Conditions in all cases: 20 nM; 72 h
MCF10A [1] = assay: 5+ nucleoli phenotype percent effect (relative to siNT 0% and siKIF11 100%); higher = more cells with five or more nucleoli
Procedure: (§1)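 After 72 h, cells were fixed and stained with Hoechst and anti-fibrillarin, and nucleoli per nucleus were counted with CellProfiler. Values are plate-adjusted percent effect for the one-nucleolus and 5+ nucleoli phenotypes, normalised to siNT (0%) and to the positive controls siNOL11 or siKIF11 (100%), as the mean of biological triplicates. Percent viability is the nuclei count relative to siNT.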

MCF10A [2] = assay: one-nucleolus phenotype percent effect (relative to siNT 0% and siNOL11 100%); higher = more cells with one nucleolus (ribosome biogenesis inhibition)
Procedure: as §1

MCF10A [3] = assay: percent viability (nuclei count relative to siNT); higher = more viable cells
Procedure: as §1

Sequence | 5+ nucleoli phenotype percent effect (MCF10A [1]) [%] | one-nucleolus phenotype percent effect (MCF10A [2]) [%] | percent viability (MCF10A [3]) [%]
GAGGCUGAAGGAAGAUGG [hsa-miR-4419b] | -30.7 | 21.1 | 58.3
CUAUACAAUCUACUGUCUUUC [hsa-let-7a-3p] | 10.6 | -10.4 | 93.9
UAAAGUAAAUAUGCACCAAAA [hsa-miR-559] | 24 | -21.4 | 153
ACCUGAAUUACCAAAAGCUUU [hsa-miR-3140-5p] | 26.3 | -18.7 | 118
AAGACUGAGAGGAGGGA [hsa-miR-4499] | 3.14 | -14 | 123
CAACUAGACUGUGAGCUUCUAG [hsa-miR-708-3p] | 46.1 | -31 | 199
UAUACCUCAGUUUUAUCAGGUG [hsa-miR-875-5p] | 32.3 | -18.7 | 119
AUUGCCUAACAUGUGCCAGAA [hsa-miR-4774-3p] | -31.6 | 13.7 | 26.6
UAAAGUGGCAGAGUAUAGACAC [hsa-miR-4796-3p] | -8.21 | -1.57 | 75.7
CAAAAGUGAUUGUGGUUUUUGC [hsa-miR-548az-5p] | 45.1 | -15.6 | 149
CUUUGCUUCCUGCUCCCCUAG [hsa-miR-6885-3p] | -17.3 | -5.84 | 41.6
UUGCUAGUUGCACUCCUCUCUGU [hsa-miR-449c-3p] | -15.1 | 7.23 | 27.2
UGGGGAUUUGGAGAAGUGGUGA [hsa-miR-4450] | 3.63 | 46.8 | 16.5
UCCCCCAGGUGUGAUUCUGAUUU [hsa-miR-361-3p] | 21.5 | -5.19 | 74.8
UGACCCCCAUGUCGCCUCUGUAG [hsa-miR-6859-3p] | -21.2 | 2.24 | 45
UGCUGAUGGCAGAUGUCGGGUCUG [hsa-miR-8075] | -34.6 | 44.2 | 20.8
CCAUGGAUCUCCAGGUGGGU [hsa-miR-490-5p] | 16.2 | 0.865 | 63.5
CUAUACAGUCUACUGUCUUUCC [hsa-let-7f-2-3p] | 4.65 | -3.58 | 70.8
ACUGGAUUUGGAGCCAGAA [hsa-miR-378j] | -1.17 | -17.6 | 42.3
UUCACAGUGGCUAAGUUCCGC [hsa-miR-27a-3p] | -6.22 | -7.64 | 118

Sequence | 5+ nucleoli phenotype percent effect (MCF10A [1]) [%] | one-nucleolus phenotype percent effect (MCF10A [2]) [%] | percent viability (MCF10A [3]) [%]
UUUGGGAUUGACGCCACAUGUCU [hsa-miR-6513-5p] | 91.1 | -20.1 | 72.6
CACAUAUGAAGUGAGCCAGCAC [hsa-miR-5580-3p] | -31.6 | -6.62 | 56.3
GCUCCCUCUAGGGUCGCUCGGA [hsa-miR-4469] | 66 | -24.8 | 67.3
AGGGGGCGCAGUCACUGACGUG [hsa-miR-4697-5p] | -0.0636 | 5.16 | 18.2
CACUGUUUCCUUUCUGAGUGGA [hsa-miR-892c-3p] | -29.1 | 1.69 | 93.2
UCCAUGUUUCCUUCCCCCUUCU [hsa-miR-4716-5p] | -43.5 | 45.4 | 28.8
AUUUCCCUGCCAUUCCCUUGGC [hsa-miR-4446-5p] | -36 | 28.2 | 18.4
UGAGUGUGUGUGUGUGAGUGUGU [hsa-miR-574-5p] | -4.79 | 3.74 | 42
UUUCAAGCCAGGGGGCGUUUUUC [hsa-miR-498] | 23.7 | -7.63 | 61
AAGAAGAGACUGAGUCAUCGAAU [hsa-miR-5197-3p] | 26.1 | -5.79 | 24.8
UGGGUUUACGUUGGGAGAACU [hsa-miR-629-5p] | -19.1 | 17.7 | 52.3
CUAGUGAGGGACAGAACCAGGAUUC [hsa-miR-921] | -15.6 | 31.9 | 48.8
UCUGGCAAGUAAAAAACUCUCAU [hsa-miR-3128] | -13.6 | 10.4 | 24.9
CAGGGAAAUGGGAAGAACUAGA [hsa-miR-5584-5p] | 34.8 | -19.1 | 53.3
UACUUGGAAAGGCAUCAGUUG [hsa-miR-890] | -34.1 | 49.1 | 21
UUUCCCUUUCCAUCCUGGCAG [hsa-miR-5006-3p] | 18.5 | 4.84 | 31.7
AGAGGACCCGUAGCUGCUAGAAGG [hsa-miR-4751] | 41.7 | -23.3 | 106
GCUGCGGGCUGCGGUCAGGGCG [hsa-miR-4734] | 8.16 | -5.38 | 40.7
CUUCCAGACGCUCCGCCCCACGUCG [hsa-miR-3180-5p] | 28.4 | -9.39 | 67.4
CGCUUUGCUCAGCCAGUGUAG [hsa-miR-1251-3p] | -13.1 | 18.6 | 76.2

Sequence | 5+ nucleoli phenotype percent effect (MCF10A [1]) [%] | one-nucleolus phenotype percent effect (MCF10A [2]) [%] | percent viability (MCF10A [3]) [%]
CUCCUGGGGCCCGCACUCUCGC [hsa-miR-1343] | 7.58 | -9.67 | 66.7
UGUCGUGGGGCUUGCUGGCUUG [hsa-miR-4440] | -27.6 | 2.65 | 58.9
ACUCGCAUCCUUCCCUUGGCAG [hsa-miR-6814-3p] | 32.1 | -25.3 | 118
UCCAGCAUCAGUGAUUUUGUUG [hsa-miR-338-3p] | 26.3 | -13.2 | 98.2
CCUCUAGAUGGAAGCACUGUCU [hsa-miR-517-5p] | 23.9 | 2.26 | 56
CCUGUUGAAGUGUAAUCCCCA [hsa-miR-1267] | 39.6 | -18.3 | 114
AAUUUACUCUGCAAUCUUCUCC [hsa-miR-4699-3p] | -0.943 | -12.5 | 87.9
CAGUGCAAUGUUAAAAGGGCAU [hsa-miR-130a-3p] | 49.2 | -19.9 | 120
GUGAGCCAGUGGAAUGGAGAGG [hsa-miR-6807-5p] | 16.4 | -20.6 | 74.2
UCGCAGACAGGGACACAUGGAGA [hsa-miR-6767-5p] | 0.353 | -5.76 | 39
GCAGCAGGGUGAAACUGACACA [hsa-miR-761] | 9.29 | 4.85 | 56.9
AAAAUUUCUUUCACUACUUAG [hsa-miR-3606-3p] | 41.5 | -25.7 | 54
UGGGGGAGAUGGGGGUUGA [hsa-miR-6870-5p] | -6.86 | 15.2 | 32.7
UCUCUGAGCAAGGCUUAACACC [hsa-miR-4653-5p] | -12.4 | 18.9 | 50.6
UACCCUGUAGAUCCGAAUUUGUG [hsa-miR-10a-5p] | -19.7 | 19.4 | 39.9
AGGCCAUCAGCAGUCCAAUGAA [hsa-miR-4529-5p] | 9.36 | 2.62 | 52.1
UAACAUAAUAGUGUGGAUUGA [hsa-miR-4803] | 40.9 | -25 | 168
UGGGAGCUAAGCUAUGGGUAU [hsa-miR-5591-5p] | -6.94 | 13.6 | 13.9
CAAAUUCGUAUCUAGGGGAAUA [hsa-miR-10a-3p] | 38.1 | -15.8 | 84.8
